# Test results taken from the nanobody polyreactivity screen of Harvey et al. (2022).
# Assay: yeast display, Sf9 membrane polyspecificity reagent, FACS + sequencing; frameworks hold sequencing errors
# Procedure, shortened: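 Using colony PCR, genes from sorted yeast display clones were amplified, then sequenced on MiSeq at 2 × 250 and filtered by CDR length. The clones had been stained with 10% biotinylated, detergent-solubilized Sf9 membrane reagent for 1 hour at 4 °C and sorted by FACS into low and high (top ~1%) gates on anti-HA and streptavidin fluorescence. Polyreactivity labels come from the gate of origin.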
row,Sequence,polyreactivity (PSR sort gate)
1,QVQLVESGGGLVQAGGSLRLSCAASGLTFRRYTMGWYRQAPGKERECVAAIRTSGGSTSYADSVKGRFTISRDNAKNTVYLQMNSLKPEDTAVYYCAADYGGTSYVRGTVGRKYDYWGQGTQVTVSS,high polyreactivity
2,QVQLVESGGGLVQAGGSLRLSCASSGFIFHTYAMGWYRQAPGKERELVAAISGGTSSTYYADSVKGRFTISRDNAKNTVYLQMKSLKPEDTAVYYCAARSRRGGYPRYFYWGQGTQVTVSS,high polyreactivity
3,PVQLVEAGGGLVQAGGSLRLSCAASGFTIRIYTMGWYRQAPGKERELVAAISSRGGSTYYADSVKGRFTISRDNAKITVYLQMNSLKPEDTAVYYCAKTPYYRYAKQRYTSSHDYWGQGTQVTVSS,high polyreactivity
4,QVQLVESVGCLVQAGGSLRLSCAASGNIITNNAMGWYRQAPGKERELVAAITRGGNTNYADSVKGRFTISRDNAKKTVYLQMKSLKPEDTAVFYCAADRYVELLGYFFEYDYWGQGTQVTVSS,low polyreactivity
5,QVQLVESGGGLVQAGGSLRLSCAASGSTLGLNAMGWYRKAPGKERELVAAISQSGTSTYYADSVKGRFTISRDNAKNTVYLQMNSLKPEDTAVYYCAVEYTQWWTYDYWGQGTQVTVSS,low polyreactivity
6,QVQLVESGGGLVQAGGSLRLSCAASGSTFVWYAMGWYRQAPGKERELVAAISSGGSTNYADSVKGRFTISRDNAKNTVYLQMNSLKPEDTAVYYCAAKAYFSSYWRWRGAMDHWGQGTQVTVSS,low polyreactivity
7,QVQLVESGGGLVQAGGSLRLSCAASGRIFSSYAMGWYRQAPGKERELVAAISRGGSTYYADSVKGRFTISRDNAKNTVYLQMNSLKPEDTAVYYCAAASYSYSERRYYYWGQGTQVTVSS,high polyreactivity
8,QVQLVESGGGLVQAGGSLRLTCAASGIIFGENARGWYRQAPGKERELVDAINSVGSTYYADSVKGRFTISRDNAKNTVYLQMNSLKPEDTAVYYCAAESWFLRWYRYDYWGQGTQVTVSS,low polyreactivity
9,QVQLVESGGGLVQAGGSLRLSCAASGGTFPYYAMGWYRQAPGKERELVADISGTDGSTYYADSVKGRFTISRDNAKNTVYLQMNSLKPEDTAVYYCAAEEVSWNGTGDYWGQGTQVTVSS,high polyreactivity
10,QVQLVESGGGLVQAGGSLRLSCAASGSTIGPYAMGWYRQAPGKERELVAAITESGDSTYYADSVKGRFTISRDTAKNTVYLQMNSLKPEDTAVYYCAADVYGDKMDYWGQGTQVTVSS,low polyreactivity
11,QVQLVESGGGLVQAGGSLRLSCAASGSIFLWNAMGWYRQAPGKERELVAAITWRGGSTYYADSVKGRFTISRDNAKNTVYLQMNSLKPEDTAVYYCAADSYDWMDYWGQGTQVTVSS,low polyreactivity
12,QVQLVESGGGLVQAGGSLRLSCAASGRIFSVYARGWYRQAPGKERELVAAITWTGGRTYYADSVKGRFTISRDNAKNTVYLQMNSLKPEDTAVYYCAAQWVRSYQMYWGQGTQVTVSS,high polyreactivity
13,QVQLVESGGGLVQAGGSLRLSCAASGRTFTINTLGWYRQAAGKERELVAAIVGDGTTNYADSVKGLFTISGDNAKNTVDLQMNSLKPEDTAVYYCAADAGYLYDWPYNSYYWGQGTQLTVSS,low polyreactivity
14,QVQLVESGGGLVQAGGSLRLSCAASGRTLGANAMGWYRQAPGKERELVAAITDSGGSTYYADSVKGRFTISRDNAKNTVYLQMNSLKPEDTAVYYCAAKQAYSSTYVWPIFDYWGQGTQVTVSS,low polyreactivity
15,QVQLVESGGGLDQAGGSLRLSCAASGRTFIAYARGWYRQAPGKERELVAAITSSGGSTNYADSVKGRFTISRDNAKNTVYLQMNSLKPEDTAVYYSATDIYECPYFYYSYYYWGQGTQVTVSS,low polyreactivity
16,QVQLVESGGGLVQAGGSLRLSCAASGSIFHTYTMGWYRQAPGKERELVAAITRSGGTTYYADSVKGRFTISRDNAKNTVYLQMNSLKPEDTAVYYCAATHPGAVSFRYYYWGQGTQVTVSS,high polyreactivity
17,QVQLVESGGGLVHAGGSLRLSCAASGYTFTYYVMGWYRQAPGKEREFVAGIRNGGGRMYYADSVKGRFTISRDNAKNTVYFQMNSLKPEDTAVYYCNAGYGTYYSGVYWRGEMDYWGQGTQVTVSS,high polyreactivity
